From article PMC5966407, “Distinct roles of XPF-ERCC1 and Rad1-Rad10-Saw1 in replication-coupled and uncoupled inter-strand crosslink repair” (Nature Communications, 2018)

Molecular target: Rpa1 (yeast), the large subunit of the replication protein A (RPA) complex (S. cerevisiae (endogenous in yeast …, UniProt P22336 1-621))
Assay: cell-based or functional assay

Rpa1 (yeast), the large subunit of the replication protein A (RPA) complex (S. cerevisiae, sequence (P22336 whole entry, one chain of several): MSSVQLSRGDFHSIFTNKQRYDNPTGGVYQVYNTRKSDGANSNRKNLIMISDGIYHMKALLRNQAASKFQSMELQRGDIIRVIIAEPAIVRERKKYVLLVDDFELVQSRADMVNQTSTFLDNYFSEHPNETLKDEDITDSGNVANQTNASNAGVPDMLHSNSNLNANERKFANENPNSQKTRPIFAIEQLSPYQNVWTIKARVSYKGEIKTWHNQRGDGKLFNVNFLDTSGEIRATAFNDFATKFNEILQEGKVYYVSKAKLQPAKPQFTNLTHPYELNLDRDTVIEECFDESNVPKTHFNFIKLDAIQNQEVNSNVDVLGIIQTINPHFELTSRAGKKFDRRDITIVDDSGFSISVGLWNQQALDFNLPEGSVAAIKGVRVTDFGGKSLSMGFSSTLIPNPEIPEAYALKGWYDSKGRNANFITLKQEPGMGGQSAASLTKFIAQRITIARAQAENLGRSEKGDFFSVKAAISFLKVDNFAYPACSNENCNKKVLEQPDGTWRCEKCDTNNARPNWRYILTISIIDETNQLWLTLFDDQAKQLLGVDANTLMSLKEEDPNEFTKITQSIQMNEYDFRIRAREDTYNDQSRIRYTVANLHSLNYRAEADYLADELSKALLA

3′ flap cleavage by purified His-Rad1–Rad10 (200 nM) in the presence of purified yeast RPA (80 nM), in vitro endonuclease assay: ~2 fold
B1: His-Rad1 (natural protein, S. cerevisiae, UniProt P06777 1-1100, looked up)
chain: MSQLFYQGDSDDELQEELTRQTTQASQSSKIKNEDEPDDSNHLNEVENEDSKVLDDDAVLYPLIPNEPDDIETSKPNINDIRPVDIQLTLPLPFQQKVVENSLITEDALIIMGKGLGLLDIVANLLHVLATPTSINGQLKRALVLVLNAKPIDNVRIKEALEELSWFSNTGKDDDDTAVESDDELFERPFNVVTADSLSIEKRRKLYISGGILSITSRILIVDLLSGIVHPNRVTGMLVLNADSLRHNSNESFILEIYRSKNTWGFIKAFSEAPETFVMEFSPLRTKMKELRLKNVLLWPRFRVEVSSCLNATNKTSHNKVIEVKVSLTNSMSQIQFGLMECLKKCIAELSRKNPELALDWWNMENVLDINFIRSIDSVMVPNWHRISYESKQLVKDIRFLRHLLKMLVTSDAVDFFGEIQLSLDANKPSVSRKYSESPWLLVDEAQLVISYAKKRIFYKNEYTLEENPKWEQLIHILHDISHERMTNHLQGPTLVACSDNLTCLELAKVLNASNKKRGVRQVLLNKLKWYRKQREETKKLVKEVQSQDTFPENATLNVSSTFSKEQVTTKRRRTRGASQVAAVEKLRNAGTNVDMEVVFEDHKLSEEIKKGSGDDLDDGQEENAANDSKIFEIQEQENEILIDDGDAEFDNGELEYVGDLPQHITTHFNKDLWAEHCNEYEYVDRQDEILISTFKSLNDNCSLQEMMPSYIIMFEPDISFIRQIEVYKAIVKDLQPKVYFMYYGESIEEQSHLTAIKREKDAFTKLIRENANLSHHFETNEDLSHYKNLAERKLKLSKLRKSNTRNAGGQQGFHNLTQDVVIVDTREFNASLPGLLYRYGIRVIPCMLTVGDYVITPDICLERKSISDLIGSLQNNRLANQCKKMLKYYAYPTLLIEFDEGQSFSLEPFSERRNYKNKDISTVHPISSKLSQDEIQLKLAKLVLRFPTLKIIWSSSPLQTVNIILELKLGREQPDPSNAVILGTNKVRSDFNSTAKGLKDGDNESKFKRLLNVPGVSKIDYFNLRKKIKSFNKLQKLSWNEINELINDEDLTDRIYYFLRTEKEEQEQESTDENLESPGKTTDDNALHDHHNDVPEAPV
